The results in this text go back to patent US11124550.

In the assay the target is human voltage-gated sodium channel hNav1.1 (hSCN1A) (human) (UniProt P35498). Briefly: cell-based or functional assay.

Chain of recombinant Hm1b (peptide) (P0DOC5 1-34, tags left off): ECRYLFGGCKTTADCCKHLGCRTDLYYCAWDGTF

The substance recombinant Hm1b (peptide) registered an EC50 for evoking sustained currents of 18.5 nM.
